In assay [1] the target is T1, Cynomolgus monkey FGFR2 IIIb D1-3 (cynomolgus monkey).
T1 construct: also called Cyno FGFR2 IIIb
T1 chain: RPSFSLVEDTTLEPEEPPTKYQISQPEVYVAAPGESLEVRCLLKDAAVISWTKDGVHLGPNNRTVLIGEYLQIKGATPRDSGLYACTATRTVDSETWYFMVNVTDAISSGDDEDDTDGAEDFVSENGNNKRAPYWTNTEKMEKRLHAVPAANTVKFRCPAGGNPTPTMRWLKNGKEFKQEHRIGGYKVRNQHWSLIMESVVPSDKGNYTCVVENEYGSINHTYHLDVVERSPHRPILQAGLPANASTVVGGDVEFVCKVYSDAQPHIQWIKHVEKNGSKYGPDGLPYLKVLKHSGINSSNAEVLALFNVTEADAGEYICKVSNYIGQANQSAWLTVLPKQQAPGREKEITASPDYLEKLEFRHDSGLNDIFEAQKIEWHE
Briefly: SPR Biacore, method as Example 2. The method, then: (§1) For kinetic measurements, experiments were performed in which the antibodies were immobilized to the sensor chip surface and the ability of the FGFR proteins described above listed in Table 1 to bind in free solution was determined Briefly, 50 μg/ml of anti-human Fc antibody at pH 4.75 was immobilized on a CM5 sensor chip through amine coupling at flow rate of 10 μl/minute on all four flow cells to reach 6000 RUs. […] Subsequently, 0.078-100 nM of FGFR receptors, diluted in a 2-fold series, were injected at a flow rate of 80 μl/min for 7 min over both reference and test flow cells. Dissociation of the binding was followed for 10 min using HBS-EP⁺ supplemented with 0.5 mg/ml of BSA and 10 μg/ml heparin as running buffer. After each injection cycle, the chip surface was regenerated with 10 mM glycine, pH 2.0 at 60 μl/min for 70 s.

Assay [2] concerns the target T2, Human FGFR2 IIIb D1-3 (human).
T2 construct: Extracellular domains D1-3 with C-terminal tag, made in HEK293T; also called recombinant human FGFR2 IIIb; hFGFR2
T2 chain: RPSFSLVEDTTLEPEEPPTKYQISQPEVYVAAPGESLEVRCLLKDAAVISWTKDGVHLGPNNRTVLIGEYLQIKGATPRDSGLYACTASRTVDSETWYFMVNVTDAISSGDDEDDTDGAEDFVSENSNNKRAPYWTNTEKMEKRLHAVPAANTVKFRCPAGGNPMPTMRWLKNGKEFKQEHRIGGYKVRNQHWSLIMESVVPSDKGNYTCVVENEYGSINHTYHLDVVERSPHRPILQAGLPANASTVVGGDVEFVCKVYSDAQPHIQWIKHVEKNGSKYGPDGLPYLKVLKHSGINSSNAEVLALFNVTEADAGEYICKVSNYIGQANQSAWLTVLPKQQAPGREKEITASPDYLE
Nature of the assay: SPR Biacore, method as Example 2. As to the method:
as §1
For orientation: Surface plasmon resonance follows binding to a sensor surface in real time, without labels.

For a further assay, the target named is T3, complement factor Clq (UniProt P02745 23-245; P02746 28-253; P02747 29-245).
T3 construct: bought (Sigma C1740); also called C1q; Complement component Clq (Sigma C1740)
T3 sequence (P02745 23-245 limits assumed, chain 1 of 3): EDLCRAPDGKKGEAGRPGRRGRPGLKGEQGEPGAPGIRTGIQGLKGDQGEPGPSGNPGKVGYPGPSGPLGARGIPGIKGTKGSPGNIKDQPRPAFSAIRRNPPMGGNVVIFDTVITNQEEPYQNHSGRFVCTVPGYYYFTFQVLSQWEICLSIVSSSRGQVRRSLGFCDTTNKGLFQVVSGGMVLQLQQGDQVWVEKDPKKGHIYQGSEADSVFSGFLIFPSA
T3 sequence (P02746 28-253 limits assumed, chain 2 of 3): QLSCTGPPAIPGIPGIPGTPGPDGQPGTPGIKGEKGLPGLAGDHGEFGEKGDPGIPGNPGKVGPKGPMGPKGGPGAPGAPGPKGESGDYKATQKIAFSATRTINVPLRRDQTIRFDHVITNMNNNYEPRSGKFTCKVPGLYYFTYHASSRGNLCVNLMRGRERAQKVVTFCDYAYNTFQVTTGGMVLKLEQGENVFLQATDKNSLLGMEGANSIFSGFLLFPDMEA
T3 sequence (P02747 29-245 limits assumed, chain 3 of 3): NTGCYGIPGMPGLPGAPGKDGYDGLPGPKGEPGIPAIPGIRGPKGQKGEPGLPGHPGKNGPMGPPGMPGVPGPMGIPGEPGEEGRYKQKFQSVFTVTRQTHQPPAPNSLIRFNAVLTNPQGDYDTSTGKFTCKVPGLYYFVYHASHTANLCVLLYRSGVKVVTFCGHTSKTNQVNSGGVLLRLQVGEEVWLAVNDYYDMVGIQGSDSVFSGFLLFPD
Nature of the assay: ELISA, antibody coated in serial dilution, constant C1q; inferred from about 50% coating.

In assay [3] the target is T1, Cynomolgus monkey FGFR2 IIIb D1-3. Briefly: SPR Biacore, IgG captured via anti-human Fc, soluble FGFR as analyte. As to the method: (§2) Affinity of the antibodies to FGFR2 species orthologues was determined using Biacore technology using a Biacore T100 instrument (GE Systems) and with CM5 sensor chips.
as §1

The target in assay [4] is T2, Human FGFR2 IIIb D1-3. Described as above. As to the method:
as §2, §1

For the next assay, the target named is T4, FGFR2 D2-D3 Construct (human).
T4 construct: E. coli made, not glycosylated; also called E. Coli. derived FGFR2D2-D3 protein
T4 chain: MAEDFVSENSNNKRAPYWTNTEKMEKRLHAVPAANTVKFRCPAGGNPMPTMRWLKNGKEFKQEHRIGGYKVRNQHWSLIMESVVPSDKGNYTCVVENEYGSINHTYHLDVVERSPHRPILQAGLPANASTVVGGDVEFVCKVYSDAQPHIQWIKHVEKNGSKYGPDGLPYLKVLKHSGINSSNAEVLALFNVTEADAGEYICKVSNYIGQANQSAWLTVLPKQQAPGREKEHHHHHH
Briefly: HDx-MS, antigen incubated 30 min with antibody. The method, then: The epitope mapping experiments described in this example were performed on a Waters HDx-MS platform, which includes a LEAP autosampler, nanoACQUITY UPLC System, and Synapt G2 mass spectrometer. The studies were automated by a LEAP autosampler operated by the LeapShell software, which performed initiation of the deuterium exchange reaction, reaction time control, quench reaction, injection onto the UPLC system and digestion time control. The Leap autosampler was equipped with two temperature controlled stacks maintained at 25° C. for HDx reaction and maintained at 2° C. for storage of protein and quench solution, respectively. Triplicate control experiments were carried out on antigen at a deuterium exchange time of 25 minutes. HDX was quenched with quenching buffer (6 M urea and 1 M TCEP pH=2.5). […] Triplicate experiments were carried out on antigen-mAb complex just as the control experiments except in these experiments the antigen in incubated for 30 min with the antibody at 25° C. prior to deuterium exchange.

Assay [5] deals with T2, Human FGFR2 IIIb D1-3. Briefly: SPR Biacore, method as Example 2. As to the method:
as §1

The target in assay [6] is T2, Human FGFR2 IIIb D1-3. Briefly: SPR Biacore, method as Example 2.
For the next assay, the target named is T5, Mouse FGFR2 IIIb D1-3 (mouse).
T5 chain: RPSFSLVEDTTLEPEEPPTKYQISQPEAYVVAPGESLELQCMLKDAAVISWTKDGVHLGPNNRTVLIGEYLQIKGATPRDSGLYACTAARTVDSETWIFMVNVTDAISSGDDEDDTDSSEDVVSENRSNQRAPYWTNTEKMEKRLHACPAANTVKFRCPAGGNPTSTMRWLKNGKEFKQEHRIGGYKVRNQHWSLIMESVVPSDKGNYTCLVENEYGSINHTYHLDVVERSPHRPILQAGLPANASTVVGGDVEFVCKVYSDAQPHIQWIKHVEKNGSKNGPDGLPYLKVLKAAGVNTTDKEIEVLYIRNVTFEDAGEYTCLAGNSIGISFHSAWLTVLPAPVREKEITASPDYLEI
Briefly: SPR Biacore, IgG captured via anti-human Fc, soluble FGFR as analyte. The method, then: as §2, §1

A further assay has as its target T6, Rat FGFR2 IIIb D1-3 (rat).
T6 chain: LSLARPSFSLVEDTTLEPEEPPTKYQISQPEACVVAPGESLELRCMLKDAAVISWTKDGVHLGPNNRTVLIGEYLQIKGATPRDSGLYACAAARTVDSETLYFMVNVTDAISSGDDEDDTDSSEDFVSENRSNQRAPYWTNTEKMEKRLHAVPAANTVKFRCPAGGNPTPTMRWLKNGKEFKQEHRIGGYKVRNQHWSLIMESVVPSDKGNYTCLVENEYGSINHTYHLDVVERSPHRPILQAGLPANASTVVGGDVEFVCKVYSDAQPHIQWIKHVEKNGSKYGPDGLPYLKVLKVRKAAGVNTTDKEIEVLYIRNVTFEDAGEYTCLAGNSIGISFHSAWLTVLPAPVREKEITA
The assay is described as above. The method, then:
as §2, §1

Assay [7] has as its target T2, Human FGFR2 IIIb D1-3. Briefly: SPR Biacore, similar assay conditions.
For a further assay, the target named is T7, Human FGFR4 ECD (human, UniProt P22455 22-369).
T7 construct: Extracellular domain with C-terminal tag
Nature of the assay: screening of panning outputs for specificity and cross-reactivity (assays of Example 1).

The target of assay [8] is T2, Human FGFR2 IIIb D1-3. Briefly: SET or Biacore, IgG.

As usually defined, the Kd is the free concentration of one partner at which half of the binding sites on the other are occupied at equilibrium, for simple one-to-one binding.

Method for complement factor Clq: In additional studies, the ability of the unconjugated anti-FGFR2 antibodies to bind the complement factor Clq was evaluated. […] In order to monitor the amount of bound antibody analyte on the microtiterplate, this procedure was performed twice per plate utilizing the second dilution (in triplicate) for determining the coating efficacy of the analyte to the plate.

B1: mAb10164 (antibody, human IgG1, lambda, V domains shown)
VH: QVQLVESGGGLVKPGGSLRLSCAASGFTFSSYALSWVRQAPGKGLEWVGRIRSKIDGGTTDYAAPVKGRFTISRDDSKNTLYLQMNSLKTEDTAVYYCARDRSPSDSSAFAIWGQGTLVTVSS
VL: DIELTQPPSVSVSPGQTASITCSGDNLGSQYVDWYQQKPGQAPVLVIYDDNDRPSGIPERFSGSNSGNTATLTISGTQAEDEADYYCQSWDSLSVVFGGGTKLTVLG
notes: HuCAL human IgG1
In the case of B1, the Kd in assay [1] was determined as 9 nM; with Human FGFR2 IIIb D1-3 [2], 2 nM; in assay [3], 16 nM; with Human FGFR2 IIIb D1-3 [4] it was 19 nM; with Human FGFR2 IIIb D1-3 [5], 2 nM. Moreover, the “C1q binding capacity against the other antibodies” value in the assay with complement factor Clq is approximately 2 fold. Besides, the binding result in the assay with FGFR2 D2-D3 Construct is on record as “binds”.

B2: mAb20437 (antibody, human IgG1, lambda, V domains shown)
VH: EVQLVESGGGLVKPGGSLRLSCAASGFTFSSYALSWVRQAPGKGLEWVGRIRSRIEGGTTDYAAPVRGRFTISRDDSKNTLYLQMNSLKTEDTAVYYCARDRSPSDSSAFAIWGQGTLVTVSS
VL: SYELTQPLSVSVALGQTARITCSGDNLGSQYVDWYQQKPGQAPVLVIYDDNDRPSGIPERFSGSNSGNTATLTISRAQAGDEADYYCQSWDSLSVVFGGGTKLTVLG
notes: human IgG1
For B2, in the assay with Human FGFR2 IIIb D1-3 [6], binding was characterised by a dissociation constant (Kd) of 3.1 nM.

B3: mAb11725 (antibody, human IgG1, lambda, V domains shown)
VH: QVQLLESGGGLVQPGGSLRLSCAASGFTFNTYWLHWVRQAPGKGLEWVSVISSDSSSTYYADSVKGRFTISRDNSKNTLYLQMNSLRAEDTAVYYCARDSRLDYWGQGTLVTVSS
VL: DIELTQPPSVSVSPGQTASITCSGDSIGDTYVDWYQQKPGQAPVLVIYDDIDRPSGIPERFSGSNSGNTATLTISGTQAEDEADYYCYVYAWTGTSNVFGGGTKLTVLG
notes: HuCAL human IgG1
In the case of B3, the equilibrium dissociation constant (Kd) amounted to 130 nM in the assay with Mouse FGFR2 IIIb D1-3; 7.3 nM in [3]; 140 nM with Rat FGFR2 IIIb D1-3; 26 nM with Human FGFR2 IIIb D1-3 [4]; 3.3 nM with Human FGFR2 IIIb D1-3 [5].

B4: mAb20562 (antibody, human IgG1, kappa, V domains shown)
VH: EVQLLESGGGLVQPGGSLRLSCAASGFTFSDYAMSWVRQAPGKGLEWVSVIEGDASYTHYADSVRGRFTISRDNSKNTLYLQMNSLRAEDTAVYYCARERTYSSAFDYWGQGTLVTVSS
VL: DIQMTQSPSSLSASVGDRVTITCRASQDISSDLNWYQQKPGKAPKLLIYDASNLQSGVPSRFSGSGSGTDFTLTISSLQPEDFATYYCQQHYSPSHTFGQGTKVEIKR
notes: human IgG1
For the molecule B4, the equilibrium dissociation constant (Kd) with Human FGFR2 IIIb D1-3 [7] stood at 9 nM.

B5: mAb12439 (antibody, human IgG1, kappa, V domains shown)
VH: QVQLVQSGAEVKKPGASVKVSCKASGYTFTSYDISWVRQAPGQGLEWMGWINPYNGGTNYAQKFQGRVTMTRDTSISTAYMELSRLRSEDTAVYYCAREGSGMIVYPGWSYAFDYWGQGTLVTVSS
VL: DIQMTQSPSSLSASVGDRVTITCRASQDISNDLGWYQQKPGKAPKLLIYAASSLQSGVPSRFSGSGSGTDFTLTISSLQPEDFATYYCQQHYHTPNTFGQGTKVEIKR
notes: HuCAL human IgG1
On to B5, for which the Kd with Mouse FGFR2 IIIb D1-3 was found to be 15 nM; in assay [3] it was 5.6 nM; with Rat FGFR2 IIIb D1-3, 16 nM; with Human FGFR2 IIIb D1-3 [4], 15 nM; with Human FGFR2 IIIb D1-3 [5], 15 nM. The binding result in the assay with Human FGFR4 ECD is listed as “binds”.

B6: mAb12947 (antibody, human IgG1, kappa, V domains shown)
VH: QVQLVQSGAEVKKPGSSVKVSCKASGGTFSSYAISWVRQAPGQGLEWMGSIQPTAGPARYAQKFQGRVTITADESTSTAYMELSSLRSEDTAVYYCARASLYSVATGSYWKVYHPFDSWGQGTLVTVSS
VL: DIQMTQSPSSLSASVGDRVTITCRASQDIYSYLAWYQQKPGKAPKLLIYDASSLQSGVPSRFSGSGSGTDFTLTISSLQPEDFATYYCQQADQYPVTFGQGTKVEIKR
notes: HuCAL human IgG1
Take B6: the Kd is 3.1 nM with Mouse FGFR2 IIIb D1-3; 2.4 nM in assay [3]; 5.1 nM in the assay with Rat FGFR2 IIIb D1-3; 2.7 nM in the assay with Human FGFR2 IIIb D1-3 [4]; 2.7 nM with Human FGFR2 IIIb D1-3 [5].

B7: mAb20811 (antibody, human IgG1, kappa, V domains shown)
VH: QVQLLESGGGLVQPGGSLRLSCAASGFTFSDYAMSWVRQAPGKGLEWVSTIEGDSNYIEYADSVKGRFTISRDNSKNTLYLQMNSLRAEDTAVYYCARERTYSSAFDYWGQGTLVTVSS
VL: DIQMTQSPSSLSASVGDRVTITCRASQDISSDLNWYQQKPGKAPKLLIYDASNLQSGVPSRFSGSGSGTDFTLTISSLQPEDFATYYCHQWYSTLYTFGQGTKVEIKR
notes: IgG
With B7, the Kd with Human FGFR2 IIIb D1-3 [8] is 0.11 nM.

B8: mAb12422 (antibody, human IgG1, kappa, V domains shown)
VH: QVQLVQSGAEVKKPGSSVKVSCKASGGTFSSYAISWVRQAPGQGLEWMGYISPYMGETHYAQKFQGRVTITADESTSTAYMELSSLRSEDTAVYYCARESYEYFDIWGQGTLVTVSS
VL: DIQMTQSPSSLSASVGDRVTITCRASQSISNDLAWYQQKPGKAPKLLIYATSILQSGVPSRFSGSGSGTDFTLTISSLQPEDFATYYCLQYYDYSYTFGQGTKVEIKR
notes: HuCAL human IgG1
B8: the Kd amounted to 7.7 nM with Mouse FGFR2 IIIb D1-3; 7.4 nM in assay [3]; 9.7 nM with Rat FGFR2 IIIb D1-3; 5.1 nM with Human FGFR2 IIIb D1-3 [4]; 5.1 nM with Human FGFR2 IIIb D1-3 [5]. The binding result with Human FGFR4 ECD was “binds”.

For the origin of these results see patent publication US20140308201A1 (Novartis, published 2014).
